Reference: paper PMC4414810 (ACS chemical biology, 2015)
Where no end group is shown, it is not given here.

How the values were obtained:
[1] = target: T1, HalM2 (haloduracin lanthipeptide synthetase) (Bacillus halodurans C-125); experiment: fluorescence polarisation
[2] = target: T1, HalM2 (haloduracin lanthipeptide …); experiment: fluorescence polarisation; remark: listed apart in the source

Binder	IC50 [1]	Ki [1]	Kd [2]
MTNLLKEWKMPLERTHNNSNPAGDIFQELEDQDILAGIEGR [HalA1 leader peptide]	4.1 ± 1.1 µM	4.1 ± 1.1 µM	
MVNSKDLRNPEFRKAQGLQFVDEVNEKELSSLAGSGDIEGR (also: 5-FAM on short synthetic peptide ligated to introduced N-terminal Cys) [fluorescein-labeled HalA2 leader peptide]			3.7 ± 1.3 µM
